The source of these data is PMC9865957, “^68Ga-HBED-CC-WL-12 PET in Diagnosing and Differentiating Pancreatic Cancers in Murine Models” (Pharmaceuticals, 2023).

One data set has as its system U87MG cells. Put plainly: Cellular uptake assay, U87MG cells. It is filed as cell-based, human. The settings on record: 1.5 kBq tracer, 45 min incubation with constant shaking, γ-counter, mean ± SD. The protocol: (§1) Murine pancreatic cancer cell PANC02 and human glioma cancer cell U87MG were obtained from Tongpai Biotechnology Co., LTD. The cells were cultured in DMEM medium containing 10% fetal bovine serum (FBS) and 1% penicillin–streptomycin. The cells grew adherent when cultured at 37 °C, 5% CO2, and appropriate humidity.
(§2) PANC02 and U87MG cells incubated to a confluence of approximately 80% in a 10 cm Petri dish were digested, centrifugated, and separated to several EP tubes. Then, the cells were incubated with 1.5 kBq ^68Ga-WL12 in a state of constant shaking for 5, 15, 30, and 45 min. At each time point, precipitation of cells was collected after centrifugating and washing by PBS. The radioactivity for each sample was measured by a γ-counter and calculated as the percentage.

The nature of a further data set: in vitro. To be noted: 10% FBS (serum). The protocol: The radiochemical purity of [^68Ga]-WL12 was determined by thin-layer chromatography (ITLC) using glass microfiber chromatography paper impregnated with a silica gel as the stationary phase and acetonitrile (50%) as the mobile phase. For the evaluation of in vitro stability, [^68Ga]-WL12 was incubated at 37 °C with saline and 10% serum, respectively, for 60 min. Aliquots (3.7 kBq) of each radiolabeled ligand were taken and analyzed by ITLC.

The nature of another data set: in vivo. The settings on record: female, C57BL/6, mouse, iv, 3.7 MBq, total radioactivity. The protocol:
C57BL/6 female mice were obtained from Shanghai Lingchang Biotechnology Co., LTD, Shanghai, China. The animals were kept in the Animal Experiment Center of Shanghai Changhai Hospital of SPF level. Then, 1 × 10^6 PANC02 cells in 0.1 mL mixture of PBS and Matrigel at a 1:1 ratio was inoculated subcutaneous into the right trunk of the mice. When the tumor reached an average volume of 300–500 mm^3, in vivo experiments of tracer metabolism were performed.
All imaging acquisition was performed on a clinical PET-CT scanner (Biograph64, Siemens Healthcare, Erlangen, Germany). Before imaging, the model mice were injected with 50 μL sodium pentobarbital (3%) into the abdominal cavity for anesthesia. […] For quantification of tracer uptake, 3D regions of interest (ROI) were drawn on the muscle, liver, and tumor.

In a further data set the test system is PANC02 cells. Put plainly: Cellular uptake assay, PANC02 cells. Format: cell-based, murine. To be noted: 1.5 kBq tracer, 45 min incubation with constant shaking, γ-counter, mean ± SD. The protocol: as §1, §2
Data set [1] in a line: In vitro stability in saline (ITLC). It is filed as physicochemical. The settings on record: 37 °C, read-out ITLC (silica gel paper, 50% acetonitrile), mean ± SD.

Consider `CCCC[C@H]1C(=O)N(C)[C@@H](CCCC)C(=O)N[C@@H](CCCNC(=O)CCc2ccc(O)c(CN(CCN(CC(=O)O)Cc3cc(CCC(=O)O)ccc3O)CC(=O)O)c2)C(=O)N[C@H](C(=O)NCC(N)=O)CSCC(=O)N[C@@H](Cc2ccc(O)cc2)C(=O)N(C)[C@@H](C)C(=O)N[C@@H](CC(N)=O)C(=O)N2CCC[C@H]2C(=O)N[C@@H](Cc2c[nH]cn2)C(=O)N[C@@H](CC(C)C)C(=O)N2C[C@H](O)C[C@H]2C(=O)N[C@@H](Cc2c[nH]c3ccccc23)C(=O)N[C@@H](CO)C(=O)N[C@@H](Cc2cn(C)c3ccccc23)C(=O)N1C` [^68Ga-HBED-CC-WL12, metal not drawn], for which the “specific binding rate in U87MG” value with U87MG cells is given as 37.7 ± 2.4%. The fraction remaining (commonly what is left of the initial amount, in per cent) at 1 h in the data set “in vitro” was 56.5 ± 2.3%. For the same molecule, in “in vivo”, the SUV at 20 min is 0.37 SUV and the SUV at 1.5 h was determined as 0.38 ± 0.02 SUV. Further, in the data set “in vivo” (tumor-to-liver (T/L) ratio based on SUVmax), the tissue to tissue ratio at 1.5 h was 0.45 ± 0.03. In “in vivo” (tumor-to-muscle (T/M) ratio based on SUVmax), the tissue to tissue ratio at 1.5 h is above 2. Also, the “specific binding rate in PANC02” value in the data set on PANC02 cells was found to be 31.2 ± 9.4%. Besides, the “RCP after 60 min incubation in saline” value in data set [1] is 92.5 ± 1.5%.
For the molecule `N=C(N)NCCC[C@@H]1NC(=O)[C@H](CCCCNC(=O)CC[C@H](NC(=O)CN2CCN(CC(=O)O)CCN(CC(=O)O)CCN(CC(=O)O)CC2)C(=O)NCCCC[C@@H]2NC(=O)[C@@H](Cc3ccccc3)NC(=O)[C@H](CC(=O)O)NC(=O)CNC(=O)[C@H](CCCNC(=N)N)NC2=O)NC(=O)[C@@H](Cc2ccccc2)NC(=O)[C@H](CC(=O)O)NC(=O)CNC1=O` [^68Ga-RGD, metal not drawn, reference compound], the SUV at 1 h in “in vivo” was below 0.05 SUV.
